Consider 115 variants from the emibetuzumab library of Makowski et al. (2022).

First the molecules themselves.
B1: VH:VL chains; a variant is named by its letters at X, in order (parent)
chain 1: QVQLVQSGAEVKKPGASVKVSCKASGYTFTDYXMHWVRQAPGQGLEWMGXVNPNXXXTTYNQKFEGRVTMTTDTSTSTAYMELRSLRSDDTAVYYCARXNXLDXWGQGTTVTVSS
chain 2: DIQMTQSPSSLSASVGDRVTITCSVSSSVSSIYLHWYQQKPGKAPKLLIYSTSNLASGVPSRFSGSGSGTDFTLTISSLQPEDFATYYCQVYSGYPLTFGGGTKVEIK

The variants in the data set derive from B1. As to the kind of experiment: yeast display scFab, FACS + sequencing. The procedure, abridged: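 The non-specific binding call was based on sorted and sequenced yeast displaying a heavy-chain CDR mutant scFab library. Labelling used anti-Myc with biotinylated ovalbumin (260 μg/mL in PBSB, 3 h, room temperature) or soluble membrane proteins (130 μg/mL, 20 min on ice), and FACS collected the top 25% and bottom 10% of binders in two replicates. Positive meant present in ≥3 of 4 pooled positive samples and in no negatives, and negative meant the converse.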
As to YGGGGDVV, the non-specific binding call was “no binding”.

For DGGGGYWF, the non-specific binding call is given as “binds”.

With YGARGAAF, the non-specific binding call was “binds”.

As to VGGTSSLD, the non-specific binding call is on record as “no binding”.

For the variant SGRGNAAD, the non-specific binding call was “no binding”.

Turning to DGARGALF, the non-specific binding call is “binds”.

In the case of DGEGGDWD, the non-specific binding call was “binds”.

With VKAAGSVD, the non-specific binding call is listed as “binds”.

Regarding VGTKGSSA, the non-specific binding call is “no binding”.

Consider AGTRSFGY, for which the non-specific binding call is given as “binds”.

For the variant DGERTAGV, the non-specific binding call is listed as “no binding”.

With VGRTSFGF, the non-specific binding call is given as “binds”.

As for DGTKSYGV, the non-specific binding call is given as “binds”.

As for VGEGGDAY, the non-specific binding call was “no binding”.

Take VGGTSSSS: the non-specific binding call was “no binding”.

In the case of VGGTSSSA, the non-specific binding call is reported as “no binding”.

As to VGGTSSSV, the non-specific binding call is reported as “no binding”.

As for VGRGNSGD, the non-specific binding call is “no binding”.

On to YGGRGDAD, for which the non-specific binding call is reported as “no binding”.

FKAEAFSF: the non-specific binding call is on record as “binds”.

As to AGETGFSA, the non-specific binding call is “binds”.

In the case of DGGTNDVD, the non-specific binding call is “no binding”.

Regarding DGGTNDVA, the non-specific binding call is given as “no binding”.

In the case of SGGRDSGV, the non-specific binding call was “binds”.

In the case of VGRGNVGV, the non-specific binding call was “binds”.

As for DGTGGSGA chain 1 R67H, the non-specific binding call is “no binding”.

Turning to YKAGGAWD, the non-specific binding call is recorded as “binds”.

Regarding YGAAGSAA, the non-specific binding call is on record as “binds”.

As to SGKKAVWV, the non-specific binding call is “binds”.

As for VKAGGDVY, the non-specific binding call is on record as “no binding”.

For the variant DGGADVGA, the non-specific binding call is given as “binds”.

For the variant AGGRSFVF, the non-specific binding call is given as “binds”.

Regarding DGGKNDVV, the non-specific binding call is listed as “no binding”.

Consider AGGTSYSV, for which the non-specific binding call is listed as “no binding”.

On to DGRGNSGD, for which the non-specific binding call is recorded as “no binding”.

Take AKAGGASD: the non-specific binding call was “binds”.

With VGGTGSGY, the non-specific binding call is “no binding”.

Turning to VGGTGSGA, the non-specific binding call is “no binding”.

With YGGRGSWV, the non-specific binding call was “no binding”.

For the variant AGGGNDGV, the non-specific binding call is recorded as “no binding”.

For AGGGNDGA, the non-specific binding call is “no binding”.

Regarding SGGKNSVD, the non-specific binding call is “no binding”.

Take DGGGASSA: the non-specific binding call is “no binding”.

On to SGAGDYSD, for which the non-specific binding call was “binds”.

Turning to DGGRGDAF, the non-specific binding call is on record as “no binding”.

For the variant YKAGGFGA, the non-specific binding call is “binds”.

On to YKAGDAAA, for which the non-specific binding call is “binds”.

As to YGGRGYAV, the non-specific binding call is “binds”.

On to SKAGGAGA, for which the non-specific binding call is reported as “binds”.

Turning to FGATSVSF, the non-specific binding call is recorded as “binds”.

Regarding YGTAAFGF, the non-specific binding call is “binds”.

As for YKAGDVSV, the non-specific binding call is reported as “binds”.

For YGETGFWY, the non-specific binding call is “binds”.

Take DGGRSAVF: the non-specific binding call is recorded as “no binding”.

Regarding DGARNAGV, the non-specific binding call is “no binding”.

Take SGGTGDVF: the non-specific binding call is given as “no binding”.

VKAGGDGS: the non-specific binding call was “no binding”.

For the variant VKAASAVY, the non-specific binding call was “no binding”.

As for VGGTSSGA, the non-specific binding call was “no binding”.

With SKAGDAWY, the non-specific binding call is on record as “binds”.

On to SKAGDAWD, for which the non-specific binding call was “binds”.

FKAGGAVA: the non-specific binding call is recorded as “binds”.

For AGGGNDWV, the non-specific binding call is on record as “no binding”.

Consider YKAGDDGA, for which the non-specific binding call was “no binding”.

Regarding VKAGDAAV, the non-specific binding call is given as “no binding”.

VGGGGAAD: the non-specific binding call is on record as “no binding”.

Consider YGGRGAVA, for which the non-specific binding call was “no binding”.

DGGTNSSA: the non-specific binding call is given as “no binding”.

For the variant VGGGADGV, the non-specific binding call was “no binding”.

Consider VGGGADGA, for which the non-specific binding call is listed as “no binding”.

Take FGAKGSSS: the non-specific binding call is listed as “binds”.

On to FGATSFSV, for which the non-specific binding call is listed as “binds”.

Take SGTADSSS: the non-specific binding call is “binds”.

For YGGGGASV, the non-specific binding call was “binds”.

Turning to FGEEDFSS chain 1 W105R, the non-specific binding call was “binds”.

On to YKAGDAGD, for which the non-specific binding call is listed as “no binding”.

Take DGGENAGD: the non-specific binding call is recorded as “no binding”.

As for SGKGGSAY, the non-specific binding call was “binds”.

Consider SGEGGAAV, for which the non-specific binding call is “no binding”.

For VGGGNDLA chain 1 R87K, the non-specific binding call is listed as “no binding”.

Turning to SGRGNDGV, the non-specific binding call is “no binding”.

Take DGGTNDGA: the non-specific binding call is recorded as “no binding”.

On to DGGGNDLA chain 1 R87K, for which the non-specific binding call was “no binding”.

Turning to VGGGGDGS, the non-specific binding call is recorded as “no binding”.

AETTDSWV: the non-specific binding call is “no binding”.

For the variant DGGRGDVV, the non-specific binding call is listed as “no binding”.

Regarding VGGGASGV, the non-specific binding call was “no binding”.

In the case of VGGKNSVD, the non-specific binding call is on record as “no binding”.

Turning to SGEGNSWA, the non-specific binding call was “no binding”.

Regarding VGGGADVA, the non-specific binding call is “no binding”.

In the case of FGRRTYGD, the non-specific binding call is recorded as “binds”.

For the variant VGGTSDVF, the non-specific binding call is on record as “no binding”.

On to VGGTSDVA, for which the non-specific binding call is given as “no binding”.

As to VGGTSDVV, the non-specific binding call is given as “no binding”.

As to DGGKNSVD, the non-specific binding call is on record as “no binding”.

In the case of AGGENDGD, the non-specific binding call was “no binding”.

For VGGGAAGV, the non-specific binding call is recorded as “no binding”.

In the case of VGGGAAGF, the non-specific binding call is recorded as “no binding”.

Take FGKGGFGY: the non-specific binding call was “binds”.

Consider SGRGNAGD, for which the non-specific binding call was “no binding”.

With SKAGGDVD, the non-specific binding call is on record as “no binding”.

Take DGGKNDLA: the non-specific binding call is “no binding”.

Regarding DGGKNDGD, the non-specific binding call is reported as “no binding”.

Take DGGKNDGS: the non-specific binding call is given as “no binding”.

With DGGKNDGV, the non-specific binding call was “no binding”.

AGGGNSGV: the non-specific binding call was “no binding”.

VGAEDDVA: the non-specific binding call was “no binding”.

Consider YGGRADVY, for which the non-specific binding call is “no binding”.

With VGATSVSF, the non-specific binding call is “binds”.

Take VKAGDSGA: the non-specific binding call is on record as “no binding”.

Regarding DGGENDVY, the non-specific binding call was “no binding”.

As to DGGENDVF, the non-specific binding call was “no binding”.

For the variant DGGTSYSV, the non-specific binding call is “no binding”.

YGRGNSGD: the non-specific binding call is reported as “no binding”.

For the variant VGGTDFVA, the non-specific binding call is listed as “no binding”.
